Measured values as given in the supplement of paper PMC12042874.
± gives the uncertainty stated by the source.

Test: amyloid nucleation score (Sup35N fusion, yeast selection) (log enrichment); library NNK1; higher = more nucleation; inactive = no reads after selection
Outline: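 Plasmid inserts were Illumina-sequenced at input and output from psi-negative yeast expressing Sup35N fused to peptides of 20 random codons. The yeast were induced with 100 μM copper sulfate for 24 hours and grown 7 days at 30°C on medium lacking adenine and uracil, and sequences with under 100 input reads were excluded. Nucleation score is the DiMSum log enrichment of output over input reads, centred on the mode score of non-aggregating sequences.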

Substance | amyloid nucleation score
CLSSSH | -0.322 ± 0.38
CLSYI | -0.172 ± 0.27
CLTKEYVRGFLNPGRHRTRQ | -0.271 ± 0.36
CLVERATITHFASCVEAYFY | -0.224 ± 1.4
CMGPYFSGMSEFRGTLSVHA | -0.491 ± 1.9
CMLREPKRKYPVKIMCSLLV | inactive
CMSLYRGFLTPEWNIFVWLA | 0.514 ± 0.61
CMSVVNLRCPDRTLVSLLPY | -0.326 ± 1.1
CMVMFCCWNMWVDSVH | 7.237 ± 0.069
CMWSRRWGTLLASILVLSYG | 0.081 ± 0.34
CNIMRSLWLGAIVCMSTMYC | -0.396 ± 0.73
CNIVFSPGTDNVVEIRVRKL | 4.15 ± 0.062
CNLSTCSFHFHFLT | 4.53 ± 0.11
CNMHATETLNIRCVNSDAC | 0.046 ± 1.6
CPVFQHDDKDWLGVFKWLRN | -1.32 ± 2.4
CQNYSHLWGEVTEWLCQRGP | 3.39 ± 0.17
CQRAFI | -0.041 ± 0.77
CRASYGFHVQRDALDR | -0.438 ± 0.75
CRFKYHLRV | -1.21 ± 2.4
CRGNLIL | -0.578 ± 0.29
CRHLFNWASWSTFTRIS | 0.375 ± 0.23
CRLKSMMVRNSWSVCSSGWG | 0.32 ± 0.5

Substance | amyloid nucleation score
CRLYVVGFFKKL | inactive
CRNSTVGITLIGWTSHFFNI | 1.2 ± 0.76
CRNVRQSCGYIYYCSRKHLA | 0.546 ± 0.49
CRQGMTLAVREPGASTSVYN | 0.47 ± 0.71
CRSHRGHMCSLVSYLAHGSS | inactive
CRVMEKIEVCYIRYFFSWLD | 0.574 ± 0.39
CRYTITFLVQKYLLDFFA | -0.074 ± 0.35
CSCVVVNCNWYG | 8.609 ± 0.071
CSDSVGSIYSHVRSGGLE | inactive
CSGNSSGVRCMVRSNRS | 0.523 ± 0.38
CSGTICLIIRKLAVILTSQR | inactive
CSGYDGNSSYNGSNPVSFND | 0.056 ± 0.77
CSILYAAPKIRQSARFLMLS | 0.451 ± 0.32
CSLKKSMQNYEFHFWFLFIV | -0.757 ± 0.62
CSLLLMYIKNELMIRSFGRF | inactive
CSLLSYK | -1.63 ± 2.7
CSLSRVNHDLMVKDSSKEQR | 4.3 ± 0.073
CSSFAQ | 0.549 ± 0.31
CSSPRTTLEYWNCFFDHWWS | 2.64 ± 0.2
CSWFVYSNFFSHQMADMEWL | 0.183 ± 0.58
CTDSEAKGCDFFGRISVNVY | 0.689 ± 0.73
CTHRSFFSSNAIAVRLDLSW | inactive

Substance | amyloid nucleation score
CTIWPSQDGRGCTLCGSRL | 0.348 ± 0.75
CTLILSQQFSSIPVHFILYM | 4.4 ± 0.05
CTLKWLTF | 1.34 ± 0.43
CTMLCFQALRLLGRRILFQA | -0.361 ± 0.48
CTPALLGLAIIQQGNTWLGI | 2.63 ± 0.079
CTPVT | 0.887 ± 1
CTQGCHRVNWSVTYRVVFLA | 0.848 ± 0.42
CTRHMHTSRKFQALLSWCVT | -0.316 ± 0.47
CTWYLLVSSSRLLTDSFLPS | 1.32 ± 0.6
CTYNLTCLWHMELNSSMIMR | 5.37 ± 0.061
CVFIHRSFHTLFSGRRVDYP | 0.229 ± 0.55
CVFVRMMCTRFAAHHCVLSG | -0.143 ± 1.2
CVLPSNYDFV | inactive
CVLSNRNFNYVAYTYKLQYP | 1.19 ± 0.32
CVLVNVNNDQSWWR | 5.04 ± 0.076
CVSGVDLYRGSLGACGW | inactive
CVSIQDHFRGYKALDPAWFV | 0.805 ± 0.27
CVVLMMGVPAKAGLLLLHWS | 0.297 ± 0.35
CVYGIGVYR | -0.84 ± 0.95
CVYSFNWLRLLGALSG | 2.18 ± 0.24
CWCQAPVC | 0.124 ± 0.31
CWCSANALMCRGKLSAWNRH | inactive

Substance | amyloid nucleation score
CWGWMARLAINLAGTGSNQK | 0.119 ± 0.71
CWMTGWTYPVY | 3.85 ± 0.15
CWVHQNNCADVGATGEQSHR | -0.029 ± 0.51
CWVLNFVFGDCNLSCWGN | 7.185 ± 0.051
CWWRV | -0.761 ± 0.83
CWYET | -1.27 ± 1.9
CYRLWHGCKMGIPVQYLYGS | -0.113 ± 0.36
CYSMNEFFGNLHVSTRTHGK | -0.944 ± 0.66
CYWSFKSAVAGPLSSESEGS | 4.4 ± 0.095
DAALVIYLL | -0.6 ± 0.52
DACGNWCYCWRALDGQDGSI | 0.099 ± 0.31
DAIPFMFPNLMVMK | 0.155 ± 0.55
DAIVDS | 0.084 ± 0.54
DALYLFWVMGRMVRDRV | 0 ± 0.63
DAMHCCKTDYYIIGISGPSD | 0.732 ± 0.68
DAMWEMRVTTVRALARVCVC | 0.236 ± 1.1
DCDRYNGLCHLCCIQWHL | 1.56 ± 0.33
DCNLSSYLVYWAFHYDKLMS | 0.083 ± 0.58
DCPFKLPFSTRRR | 0.05 ± 0.73
